From article PMC4423232 come the findings set out here.

The target in assay [1] is optimized version of the ectodomain of human Fcγ receptor I (hFcγRI, CD64), residues Gln16 to Val289, hexa-histidine tag at the C-terminus (human) (UniProt P12314). Nature of the assay: SPR; method #1: Biacore T200, hFcγRI captured by its C-terminal hexa-histidine on a Ni-NTA chip (~550 RU for Fc, ~220 RU for IgG), Fc or IgG1 as analyte, PBS with 0.005% Tween-20, 25 °C, 1:1 Langmuir global fit, KD from the rate constants. For orientation: In SPR one partner is held on a chip, and binding of the other changes the refractive index at the surface.

For assay [2] the target is unchanged. Nature of the assay: SPR; temperature dependence of KD, van't Hoff approximation; hFcγRI on the surface, Fc or IgG1 as analyte.

pKd: −log10 of the molar value.

“Fc fragment of the humanized IgG1 monoclonal antibody rituximab (from UniProt P01857 107-328) (domain or fragment)”: in assay [1], the pKd was 8.38, the koff was determined as 0.00011 s⁻¹ and the kon worked out at 27000 M⁻¹ s⁻¹. In assay [2], this substance registered a dH (van't Hoff) of -26.8 kcal/mol.

One may read the pKd as the Kd on a negative log10 scale, so that one unit is a factor of ten. A lower pKd goes with a large Kd. As a reminder, the koff is a measure of how fast the partners let go of each other. A high value points to fast dissociation. What is called kon is the rate constant with which the complex forms. A high value points to faster complex formation.
